A short description of the data set: amyloid nucleation score (Sup35N fusion, yeast selection) (log enrichment); library NNK3; higher = more nucleation; inactive = no reads after selection. In outline:
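Growth for 7 days at 30°C on medium lacking adenine and uracil followed a 24-hour induction with 100 μM copper sulfate of psi-negative yeast expressing peptides of 20 random codons fused to Sup35N. Input and output plasmid inserts were sequenced with Illumina, and sequences with under 100 input reads were excluded. Nucleation score is the DiMSum log enrichment of output over input reads, centred on the mode score of non-aggregating sequences.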

± gives the uncertainty stated by the source.

For the substance IHHQC, the amyloid nucleation score result was “inactive”.
Regarding RSDMGSHFHAELLKYEMATM, the amyloid nucleation score entry was “inactive”.
Consider NDLWIEMFKS, for which the amyloid nucleation score entry is “inactive”.
As for YLWFWQFNTRLGVRRIFWTR, the amyloid nucleation score entry was “inactive”.
Turning to YGRRKYSWAVWICKHIGAYG, the amyloid nucleation score entry is “inactive”.
With WSAECLFLVWRIHSML, the amyloid nucleation score result is “inactive”.
Turning to NNCVITFFEFSTWGCLYLKF, the amyloid nucleation score result was “inactive”.
As to PHAYTVIDSSRFRPKERLCG, the amyloid nucleation score result was “inactive”.
Take FDTVVLCWVIGIRIGPHNAL: the amyloid nucleation score entry is “inactive”.
The result for SIGISEPLIIYLFNWQLLYW reads “inactive”.
As to YDTNLRLFRSRRLSPGWCFR, the amyloid nucleation score entry was “inactive”.
Take YDVTSDR: the amyloid nucleation score entry was “inactive”.
Consider SNYVKKQIALS, for which the amyloid nucleation score entry is “inactive”.
In the case of HSFIYVLDVLNVR it was “inactive”; in that of LPLPFFQRVNNGKSVLGVHL, “inactive”; in that of LYWFCCLVIYVGPLVHPVEL, “inactive”.
Regarding RDNYDAFMIL, the amyloid nucleation score entry was “inactive”.
In the case of EVYFKMAQPLLHWDYERMQV it was “inactive”.
Consider LYPFYFYA, for which the amyloid nucleation score entry was “inactive”.
In the case of IFLKNCLLWKTAGSFMNSIA it was “inactive”; in that of EFATLAEPDVIYYFLVFYCS, “inactive”.
Consider GVCASNQLALKCTYVPMSVR, for which the amyloid nucleation score result is “inactive”.
As to FDSLFYCGYTYHYQVARKFR, the amyloid nucleation score entry was “inactive”.
On to LIGFLNNSVFMSAGY, for which the amyloid nucleation score result was “inactive”.
LKLFWSLET: the amyloid nucleation score result is “inactive”.
Take YNLSRHQRTSTSLRCKGQSF: the amyloid nucleation score amounted to 0.241 ± 0.44.
In the case of MCSIIRCRFNMFCLMYVNSV, the amyloid nucleation score came out at 0.584 ± 0.13.
For the substance IGFRWY, the amyloid nucleation score result is “inactive”.
Regarding HEYSSKILMM, the amyloid nucleation score result was “inactive”.
In the case of GIVALCRTCDNRRMRVSVGV, the amyloid nucleation score result was “inactive”.
On to WSCNN, for which the amyloid nucleation score entry was “inactive”.
Substance VIVCNECLG had an amyloid nucleation score of 0.546 ± 0.42.
Regarding CENYRMGYRNVRVSFAPPFK, the amyloid nucleation score result was “inactive”.
For VQISVNSVNLLKRWFIRAGT, the amyloid nucleation score entry was “inactive”.
On to QGAMVD, for which the amyloid nucleation score result was “inactive”.
Take CVFPCMFLEFTMTDMKLYSS: the amyloid nucleation score result was “inactive”.
As for VNLITCKQVSFRCQVSGILC, the amyloid nucleation score amounted to 2.19 ± 0.092.
In the case of CSKNRQSELRALGSYI it was “inactive”.
The result for ESNGVSGPAQMERDTVPEVP reads “inactive”; that for LSGMMFAGPFLTCSLDCWML, “inactive”; that for NPLYVFDRI, -0.71 ± 0.53.
Turning to RVNHGGNLTRAKHERLFHLK, the amyloid nucleation score result was “inactive”.
The substance RCSCLTFVVSTK showed an amyloid nucleation score of 0.424 ± 0.75.
Turning to NFTSFCFSKMSRLEDSGQ, the amyloid nucleation score result was “inactive”.
In the case of LRFVSKLWWFISMSSRSHLH it was “inactive”; in that of RPAWTRTSTVDKLQIELRYE, “inactive”; in that of LCRFNLYYWLVFELACSRWN, “inactive”.
Substance SWYSMGNP had an amyloid nucleation score of 1.04 ± 0.14.
On to YPCNFYWFRNILADTPIQYD, for which the amyloid nucleation score result is “inactive”.
NRKNTKHLIFFYVFVT: the amyloid nucleation score entry is “inactive”.
Turning to MTDFKSTLSTTSMFTGESLI, the amyloid nucleation score result is “inactive”.
For TLSCYECPVVVRILVVRNCV, the amyloid nucleation score result was “inactive”.
For the substance SNGAGC, the amyloid nucleation score result is “inactive”.
In the case of FRVVNMSWCAPNLTLRFKYL, the amyloid nucleation score result is “inactive”.
Take GNCSWRVYGISSGFLRHGAV: the amyloid nucleation score result was “inactive”.
The result for ENSGWSKRVFSSFFMIAMMY reads “inactive”; that for GFFYRDDARNFVLVTNSWRL, “inactive”.
For the substance MGRLKCTVKPVSYEMWKVYA, the amyloid nucleation score result is “inactive”.
With SWWFCVWFQNI, the amyloid nucleation score turned out to be 0.888 ± 0.13.
In the case of SRELNYVVAWIL, the amyloid nucleation score entry is “inactive”.
Take PFAEQRRL: the amyloid nucleation score result is “inactive”.
Turning to RMAYIENGVDTAACSDLYVL, the amyloid nucleation score result was “inactive”.
With QYTCDDSCILFCCASWAEWS, the amyloid nucleation score worked out at 2.34 ± 0.081.
In turn, YGVWCSYKFVYSCDPYDSAG displayed an amyloid nucleation score of 0.557 ± 0.15.
In the case of RLGFRRIRIIRSSGFSEEWH, the amyloid nucleation score amounted to 0.224 ± 0.39.
In turn, CCNYFLNIIYVVQV displayed an amyloid nucleation score of 3.14 ± 0.058.
In the case of KYHLGECVLSPLAPKIHWEI it was “inactive”; in that of NFLSSNFKKALHLFPISDCN, “inactive”.
Turning to LDILVRETDQSLWDFQLSSV, the amyloid nucleation score stood at 0.499 ± 0.13.
For YIVLMSLLFGM, the amyloid nucleation score result is “inactive”.
Take RDLKFGWGWMGRTEISWYLF: the amyloid nucleation score result is “inactive”.
As for SRLMRKRISA, the amyloid nucleation score result was “inactive”.
Regarding NWNSSHLNREYTRHFSGMMV, the amyloid nucleation score result is “inactive”.
The result for TLILTDRTWLNDLSSLLIQL reads “inactive”; that for LVFLN, “inactive”.
As to NFFCSA, the amyloid nucleation score entry was “inactive”.
With PLFWNGSC, the amyloid nucleation score entry is “inactive”.
For the substance CLFFKHLLLGDDVLLLTYLR, the amyloid nucleation score result is “inactive”.
In the case of SQTLYLGARVNRMRYVFSAC, the amyloid nucleation score result is “inactive”.
Consider HGFEIDTRTDSRQAVNCMCC, for which the amyloid nucleation score entry is “inactive”.
Turning to YMFRFGSTDCEAYV, the amyloid nucleation score entry is “inactive”.
As for LFLAKRSLSDTLFQPDPFSR, the amyloid nucleation score entry was “inactive”.
Consider RFSTQAENGVSIIFNLVCFN, for which the amyloid nucleation score is 2.8 ± 0.082.
Take GDLVSIWAMRFELRKSKEMR: the amyloid nucleation score result was “inactive”.
In the case of YLSEPGNYRVSNVIGCNRID, the amyloid nucleation score entry was “inactive”.
Consider LEEDVHISFHHIFDRFCPTT, for which the amyloid nucleation score result is “inactive”.
HMRIGNESWVIGCQ: the amyloid nucleation score was 0.132 ± 0.75.
Regarding SVIILSCND, the amyloid nucleation score entry was “inactive”.
On to FMGDRLKEAGDRTLYDQKVG, for which the amyloid nucleation score result is “inactive”.
The result for DDCIIRAGWDLLQR reads “inactive”; that for NHQLGIGYFCDTYLCDHWDP, “inactive”; that for QCQFYTSMMSAR, “inactive”.
For the substance FWKWL, the amyloid nucleation score result is “inactive”.
In the case of TMHLTHRYSTVLRESLVGSR it was “inactive”; in that of RAYTDV, “inactive”.
As to YCFICVDSIAL, the amyloid nucleation score was 2.27 ± 0.072.
The result for WSEHGQWMYNRLCGSGFISH reads “inactive”.

The record behind these values is the supplement of paper PMC12042874.
